# According to publication PMC6430648:
# B1: PCSK9 Charged-2 (ssDNA)
# DNA: CGAATCAGATTGGACCAGTTTCATCCCTTTTTGCCACCCCTTTGTTGTCCACCCCCATGTCCTGAGTCCAGATGTAGGTAG
# modifications: none (no functionalized codon)
# B2: PCSK9 Unfunctionalized-1 (ssDNA)
# DNA: CGAATCAGATTGGACCAGTTACCGCCCTCTCCCTTTTGTCCCCTCCGTTGTTTCTCTTTCCCTGAGTCCAGATGTAGGTAG
# B3: PCSK9 Unfunctionalized-3 (ssDNA)
# DNA: CGAATCAGATTGGACCAGCACCCTCCGTCTCCGCTCCCCTCGTCTTGTTGTTTCCCTTTCCCTGAGTCCAGATGTAGGTAG
# B4: IL-6 Unfunctionalized-1 (ssDNA)
# DNA: CTCGGATGAACCTGGACTTTATTGCACTGGCTGTACTTTTCGTATCCATGGTCATCTTTTCTAGCATCGAAGCCAAGATTC
# B5: IL-6 Unfunctionalized-2 (ssDNA)
# DNA: CTCGGATGAACCTGGACTTTACTGCGGCGCCAGCCGTGCCCATCCTTTCTTCATCCGTGCCCAGCATCGAAGCCAAGATTC
# B6: IL-6 Unfunctionalized-3 (ssDNA)
# DNA: CTCGGATGAACCTGGACTCTGTTTTTACTACCGCGCTAGCCGCCTCATCCGTTTTAGCGCCATGCATCGAAGCCAAGATTC
# B7: IL-6 Unfunctionalized-4 (ssDNA)
# DNA: CTCGGATGAACCTGGACTTAATGATGCTCATGGTGCTCTTCATCACCATCTTCGTTCCATCCTGCATCGAAGCCAAGATTC
# B8: IL-6 Unfunctionalized-5 (ssDNA)
# DNA: CTCGGATGAACCTGGACTTCTTCATTGCGCTGGTGCCTGCCATCCTTGTTCCATCCCCTTTGCGCATCGAAGCCAAGATTC
# Target: PCSK9 (UniProt Q8NBP7 153-692)
# Assay: SPR
# Sequence of PCSK9 (Q8NBP7 153-692): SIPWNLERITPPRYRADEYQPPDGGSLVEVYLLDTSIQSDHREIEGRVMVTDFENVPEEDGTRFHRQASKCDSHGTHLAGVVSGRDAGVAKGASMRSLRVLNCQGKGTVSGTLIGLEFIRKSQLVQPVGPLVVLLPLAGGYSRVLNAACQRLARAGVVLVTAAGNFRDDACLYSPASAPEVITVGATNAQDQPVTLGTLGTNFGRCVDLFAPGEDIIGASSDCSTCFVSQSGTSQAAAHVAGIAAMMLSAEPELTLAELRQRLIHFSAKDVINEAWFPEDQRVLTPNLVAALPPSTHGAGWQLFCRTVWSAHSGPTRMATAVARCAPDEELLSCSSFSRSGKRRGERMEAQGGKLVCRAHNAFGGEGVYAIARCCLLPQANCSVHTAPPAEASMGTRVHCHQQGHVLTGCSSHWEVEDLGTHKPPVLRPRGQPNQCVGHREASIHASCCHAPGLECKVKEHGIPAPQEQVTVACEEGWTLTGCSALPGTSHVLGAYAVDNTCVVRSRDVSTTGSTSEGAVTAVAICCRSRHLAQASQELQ
row,Binder,binding signal [%Rmax]
1,B1,11
2,B2,30
3,B3,34

# Target: IL-6 (UniProt P05231 30-212)
# Assay: SPR
# Sequence of IL-6 (P05231 30-212): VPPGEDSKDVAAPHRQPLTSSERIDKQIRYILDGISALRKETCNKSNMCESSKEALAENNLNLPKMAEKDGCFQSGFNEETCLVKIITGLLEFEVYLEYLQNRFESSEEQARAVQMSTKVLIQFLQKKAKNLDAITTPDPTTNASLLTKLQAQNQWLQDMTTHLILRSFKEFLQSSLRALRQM
row,Binder,binding signal [%Rmax]
1,B4,4
2,B5,3
3,B6,3
4,B7,4
5,B8,4
